# Results from publication PMC6736635 (Nature structural & molecular biology, 2019).
# B1: EED (human, wild type, subunit of reconstituted PRC2 complexes) (natural protein)
# chain: not shown
# Target: EZH2 (human, wild type, subunit of reconstituted PRC2 complexes) (human, UniProt Q15910-2 1-751)
# Assay: SEC
binder,measurement,value
B1,binding result,binds
